Laboratory results from patent US20240277831A1 (University of Washington, published 2024).

Experiments:
[1] = molecular target: RBD-8GS-I53-50A trimeric component (SARS-CoV-2)
Monomeric SARS-CoV-2 RBD = Monomeric SARS-CoV-2 RBD (SARS-CoV-2, UniProt P0DTC2 328-531)
[2] = molecular target: RBD-12GS-I53-50A trimeric component (SARS-CoV-2)

B1: monomeric human ACE2 (hACE2) ectodomain (receptor)
chain: STIEEQAKTFLDKFNHEAEDLFYQSSLASWNYNTNITEENVQNMNNAGDKWSAFLKEQSTLAQMYPLQEIQNLTVKLQLQALQQNGSSVLSEDKSKRLNTILNTMSTIYSTGKVCNPDNPQECLLLEPGLNEIMANSLDYNERLWAWESWRSEVGKQLRPLYEEYVVLKNEMARANHYEDYGDYWRGDYEVNGVDGYDYSRGQLIEDVEHTFEEIKPLYEHLHAYVRAKLMNAYPSYISPIGCLPAHLLGDMWGRFWTNLYSLTVPFGQKPNIDVTDAMVDQAWDAQRIFKEAEKFFVSVGLPNMTQGFWENSMLTDPGNVQKAVCHPTAWDLGKGDFRILMCTKVTMDDFLTAHHEMGHIQYDMAYAAQPFLLRNGANEGFHEAVGEIMSLSAATPKHLKSIGLLSPDFQEDNETEINFLLKQALTIVGTLPFTYMLEKWRWMVFKGEIPKDQWMKKWWEMKREIVGVVEPVPHDETYCDPASLFHVSNDYSFIRYYTGTLYQFQFQEALCQAAKHEGPLHKCDISNSTEAGQKLFNMLRLGKSEPWTLALENVVGAKNMNVRPLLNYFEPLFTWLKDQNKNSFVGWSTDWSPYADPLVPR
With B1 the Kd [1] was 70 nM, the koff [1] was 0.004 s⁻¹ and the kon [1] was 60000 M⁻¹ s⁻¹. The Kd (Monomeric SARS-CoV-2 RBD) was 69 nM, the koff (Monomeric SARS-CoV-2 RBD) was 0.005 s⁻¹ and the kon (Monomeric SARS-CoV-2 RBD) was 70000 M⁻¹ s⁻¹. For the same binder, the Kd [2] was 78 nM, the koff [2] was 0.005 s⁻¹ and the kon [2] was 60000 M⁻¹ s⁻¹.
